This passage reports Kd results from patent EP3240566B1 (Development Center for Biotechnology, dated 2020).

In assay [1] the target is T1, human ENO1 protein (human, UniProt P06733 1-434).
T1 construct: also called ENOl; alpha-enolase
Put plainly: SPR, BIAcore 2000, ENO1 injected, 25 degree C, 1:1 Langmuir. On the technique in general: Surface plasmon resonance follows binding to a sensor surface in real time, without labels.

Assay [2] deals with T1, human ENO1 protein. Put plainly: ENO1 binding ELISA.

T1 sequence (P06733 whole entry): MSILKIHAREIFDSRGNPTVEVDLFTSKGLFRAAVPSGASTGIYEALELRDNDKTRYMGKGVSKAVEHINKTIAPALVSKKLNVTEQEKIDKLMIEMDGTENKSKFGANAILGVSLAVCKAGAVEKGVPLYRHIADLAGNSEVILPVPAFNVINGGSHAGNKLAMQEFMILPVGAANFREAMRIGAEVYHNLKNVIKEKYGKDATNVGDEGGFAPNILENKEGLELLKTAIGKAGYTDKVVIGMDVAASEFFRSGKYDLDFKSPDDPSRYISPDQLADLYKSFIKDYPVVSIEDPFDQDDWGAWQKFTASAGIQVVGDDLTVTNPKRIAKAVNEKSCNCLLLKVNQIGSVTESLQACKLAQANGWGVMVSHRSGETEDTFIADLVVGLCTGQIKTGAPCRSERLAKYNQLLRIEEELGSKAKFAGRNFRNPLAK

B1: hum EN10 mAb IMGT (antibody, IgG1, V domains shown)
VH: QVQLVQSGAEVKKPGASVKVSCKASGYTFTSCVMNWVRQAPGQGLEWMGYINPYNDGTKYNEKFKGRVTMTTDTSTSTAYMELRSLRSDDTAVYYCAREGFYYGNFDNWGQGTLVTVSS
VL: DIQMTQSPSSLSASVGDRVTITCRASENIYSYLTWYQQKPGKAPKLLIYNAKTLPEGVPSRFSGSGSGTDFTLTISSLQPEDFATYYCQHHYGTPYTFGQGTKLEIKR
notes: also called humanized EN10 mAb IMGT; Hum EN10 IMGT
For orientation: Kd means a measure of binding affinity in units of concentration. Low readings indicate a tighter complex, high ones a looser complex. For B1, the Kd with human ENO1 protein [1] was determined as 0.219 nM; with human ENO1 protein [2], 0.0365 nM.

B2: hum EN10 mAb 4D5 (antibody, IgG1, V domains shown)
VH: EVQLVESGGGLVQPGGSLRLSCAASGYTFTSCVMNWVRQAPGKGLEWVAYINPYNDGTKYNEKFKGRFTISRDDSKNTLYLQMNSLRAEDTAVYYCAREGFYYGNFDNWGQGTLVTVSS
VL: B1 VL
notes: also called humanized EN10 mAb 4D5; hum ENO10mAb 4D5
In turn, B2 registered a dissociation constant Kd with human ENO1 protein [1] of 0.5 nM.
